Like-named read-outs stand apart in the source and are kept apart here.
Columns and labels:
[1] = biological target: T1, human CD3 expressed on cells (Jurkat cells; human T-cells of PBMC) (human, UniProt P09693 23-182; P20963 22-164); experiment: cell-based or functional assay
[2] = biological target: T1, human CD3 expressed on cells (Jurkat …); experiment: FACS titration on Jurkat cells (CD3+ human T-cell line)
Experimental: (§1) FACS data was acquired using the following protocol: Cells at 2×10⁵ per well were incubated with serially diluted antibodies for 30 min on ice. Post incubation, cells were washed and secondary antibody was added and incubated for an additional 30 minutes. After incubation, cells were washed, re-suspended in cold PBS containing 1% BSA and analyzed by flow cytometry with viable Jurkat cells gated by side and forward scatters. The EC₅₀s for cell binding titration were determined using Prism software with values calculated using a 4-parameter non-linear regression analysis.

[3] = biological target: T1, human CD3 expressed on cells (Jurkat …); experiment: cell-based or functional assay; remark: listed apart in the source
[4] = biological target: T1, human CD3 expressed on cells (Jurkat …); experiment: cell-based or functional assay; remark: listed apart in the source
[5] = biological target: T1, human CD3 expressed on cells (Jurkat …); experiment: cell-based or functional assay; remark: listed apart in the source
[6] = biological target: T1, human CD3 expressed on cells (Jurkat …); experiment: FACS titration on Jurkat cells, monovalent 1-arm antibody
Experimental: as §1

[7] = biological target: cynomolgus monkey CD3 expressed on monkey T-cells (PBMCs) (cynomolgus monkey, UniProt Q95LI5 22-198; Q95LI8 22-171); experiment: cell-based or functional assay
Chain of cynomolgus monkey CD3 expressed on monkey T-cells (PBMCs) (Q95LI5 22-198, chain 1 of 2): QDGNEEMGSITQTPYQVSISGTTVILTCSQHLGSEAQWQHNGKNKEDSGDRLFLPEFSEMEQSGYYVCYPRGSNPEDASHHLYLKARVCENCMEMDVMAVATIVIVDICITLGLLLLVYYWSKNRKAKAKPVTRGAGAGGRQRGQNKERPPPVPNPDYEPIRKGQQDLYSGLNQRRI
Chain of cynomolgus monkey CD3 expressed on monkey T-cells (PBMCs) (Q95LI8 22-171, chain 2 of 2): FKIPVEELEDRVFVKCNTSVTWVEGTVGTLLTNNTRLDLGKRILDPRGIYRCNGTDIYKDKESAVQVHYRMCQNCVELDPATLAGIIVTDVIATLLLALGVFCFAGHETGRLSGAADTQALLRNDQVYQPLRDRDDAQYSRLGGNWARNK

T1 sequence (chain, as listed by the source, chain 1 of 4): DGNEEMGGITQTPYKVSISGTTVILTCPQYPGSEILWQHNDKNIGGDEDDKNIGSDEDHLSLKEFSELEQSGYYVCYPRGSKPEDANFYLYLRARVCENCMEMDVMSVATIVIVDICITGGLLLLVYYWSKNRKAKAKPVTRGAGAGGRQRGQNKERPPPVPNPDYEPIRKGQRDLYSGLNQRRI
T1 sequence (chain, as listed by the source, chain 2 of 4): as the sequence (Q95LI8 22-171, chain 2 of 2) above, with V5I, K15N, V20I, T32S, N33D, N34I, A64T, N74S, L83V, R141H counted along it
T1 sequence (P09693 23-182, chain 3 of 4): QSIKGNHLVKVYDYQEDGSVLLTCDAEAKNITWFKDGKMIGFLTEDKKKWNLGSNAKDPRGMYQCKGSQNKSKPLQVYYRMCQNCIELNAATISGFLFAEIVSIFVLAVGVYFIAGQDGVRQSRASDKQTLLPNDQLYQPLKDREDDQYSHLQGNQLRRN
T1 sequence (P20963 22-164, chain 4 of 4): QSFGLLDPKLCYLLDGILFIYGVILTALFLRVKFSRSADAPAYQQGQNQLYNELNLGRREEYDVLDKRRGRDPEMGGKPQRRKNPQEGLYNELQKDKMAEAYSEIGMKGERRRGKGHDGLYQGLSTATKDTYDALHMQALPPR

B1: H1H5795B (antibody, human IgG1, V domains shown)
VH: EVQLVESGAEVKKPGASVKVSCKTSGYSFIGYYIHWMRQAPGQGLEWMGWINPKSGVTNYAQRFQGRVTMTRDTSISTAYMELSRLKSDDTAVYFCARMGDGAVFDFWGQGTLVTVSS
VL: DIQLTQSPSSLSASVGDRVTITCRASQRISSFLNWYQQKPGKVPKLLIYTASNLQNGVPSRFSGTGSGTDFTLTISSLQPEDFATYYCQQSYRTPLTFGGGTKVDIKR
notes: H1H: human IgG1 Fc
[1]
  EC50 [M] hPBMC Proliferation: 3.09e-12 M
[2]
  EC50: 2.04 nM
[3]
  U937 Cytotoxicity Human T-cells: 67.4 pM

B2: H1H5798B (antibody, human IgG1, V domains shown)
VH: QVQLVQSGGGLVKPGGSLRLSCAASGFTFSSYDMSWVRQAPGKGLEWVSYISSSGNTIHYADSVKGRFTISRDNSKNSLYLQMNSLRAEDTAVYYCAKAGPATVTRRYYYYYGLDVWGQGTTVTVSS
VL: DIVMTQSPSSLSASVRDRVTITCRASQRISSYLNWFQQKPGKAPKVLIYTASSLQNGVPSRFSGSGSGTDFTLTISSLQPEDFATYYCQQSYRTPLTFGGGTKVEIKR
notes: H1H: human IgG1 Fc
[1]
  EC50 [M] hPBMC Proliferation: 2.59e-12 M
[2]
  EC50: 5.57 nM
[3]
  U937 Cytotoxicity Human T-cells: 181 pM

B3: H1H7204P (antibody, human IgG1, V domains shown)
VH: EVQLVESRGALVQPGRSLRLSCAASGFAFNDYTMHWVRQAPGKGLEWVSDISWNSNSKDYADSVKGRFTISRDNAKNSLYLQMNSLRAEDTALYYCVKDGSGYGKFSLYALDVWGQGTTVTVSS
VL: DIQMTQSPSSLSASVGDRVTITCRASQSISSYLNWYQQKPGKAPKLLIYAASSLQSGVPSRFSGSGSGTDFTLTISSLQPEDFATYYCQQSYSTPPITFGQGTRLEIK
notes: Monovalent 1-arm format: second Fab removed, only the Fc portion (CH2-CH3) expressed; human IgG1 Fc; tied by the numerical identifier; also called H1H7204B
[4]
  U937 Cytotoxicity Human T-cells: 10.8 pM
[5]
  EC50 [M] hPBMC Proliferation: 1.51e-12 M
[6]
  EC50: 2.29 nM
[7]
  EC50 [M] mfPBMC Proliferation: 1.26e-11 M

B4: H1H7221P (antibody, human IgG1, V domains shown)
VH: EVQLVESGGGLVQPGRSLRLSCVASGFTFDDYSMHWVRQAPGKGLEWVSGISWNSGSKDYADSVKGRFTISRDNAKNSLYLQMNSLRAEDTALYYCAKYGSGYGKFYHYGLDVWGQGTTVTVSS
VL: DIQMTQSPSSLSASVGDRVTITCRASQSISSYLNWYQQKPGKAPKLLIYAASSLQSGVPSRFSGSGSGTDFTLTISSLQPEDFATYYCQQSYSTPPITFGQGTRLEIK
notes: Monovalent 1-arm format: second Fab removed, only the Fc portion (CH2-CH3) expressed; human IgG1 Fc; tied by the numerical identifier; also called H1H7221B
[4]
  U937 Cytotoxicity Human T-cells: 9.21 pM
[5]
  EC50 [M] hPBMC Proliferation: 2.6e-12 M
[6]
  EC50: 1.4 nM
[7]
  EC50 [M] mfPBMC Proliferation: 1.72e-12 M

B5: H1H7242P (antibody, human IgG1, V domains shown)
VH: EVQLVESGGGLVQPGRSLRLSCAASGFTFDDYTMHWVRQGPGKGLEWVSDIGWNSNSIGYADSVKGRFTISRDNAKNSLYLQMNSLRPEDTALYFCVKDKSGYGKFFIGLDVWGQGTMVTVSS
VL: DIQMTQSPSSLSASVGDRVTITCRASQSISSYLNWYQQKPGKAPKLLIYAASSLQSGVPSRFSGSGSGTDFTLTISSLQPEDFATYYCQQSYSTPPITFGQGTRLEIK
notes: Monovalent 1-arm format: second Fab removed, only the Fc portion (CH2-CH3) expressed; human IgG1 Fc; tied by the numerical identifier; also called H1H7242B
[4]
  U937 Cytotoxicity Human T-cells: 7.5 pM
[5]
  EC50 [M] hPBMC Proliferation: 2.13e-12 M
[6]
  EC50: 1.83 nM
[7]
  EC50 [M] mfPBMC Proliferation: 1.38e-11 M

B6: H1H7241P (antibody, human IgG1, V domains shown)
VH: EVQLVESGGGLVQPGRSLRLSCAASGFTFADYTMHWVRQGPGKGLEWVSDIGWNSNTIGYADSVKGRFAISRDNAKNSLYLQMNSLRPEDTALYYCVKDKSGYGKFQYGLDVWGQGTTVTVSS
VL: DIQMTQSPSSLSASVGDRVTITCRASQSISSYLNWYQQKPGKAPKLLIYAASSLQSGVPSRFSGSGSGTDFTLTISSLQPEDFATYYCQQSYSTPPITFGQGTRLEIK
notes: Monovalent 1-arm format: second Fab removed, only the Fc portion (CH2-CH3) expressed; human IgG1 Fc; tied by the numerical identifier; also called H1H7241B
[4]
  U937 Cytotoxicity Human T-cells: 12.3 pM
[5]
  EC50 [M] hPBMC Proliferation: 1.05e-12 M
[6]
  EC50: 1.01 nM
[7]
  EC50 [M] mfPBMC Proliferation: 2.05e-11 M

B7: H1H7251P (antibody, human IgG1, V domains shown)
VH: EVQLVESGGGLVQPGRSLRLSCAASGFTFADYTMHWVRQGPGTGLEWVSDIGWSGGSLGYADSVKGRFTISRDNAKNSLYLEMNNLRPEDTALYYCVKDKSGYGKFQYGLDVWGQGTTVTVSS
VL: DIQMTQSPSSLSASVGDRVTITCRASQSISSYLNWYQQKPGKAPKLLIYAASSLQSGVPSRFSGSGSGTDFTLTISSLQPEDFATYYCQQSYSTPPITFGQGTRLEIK
notes: Monovalent 1-arm format: second Fab removed, only the Fc portion (CH2-CH3) expressed; human IgG1 Fc; tied by the numerical identifier; also called H1H7251B
[4]
  U937 Cytotoxicity Human T-cells: 1.81 pM
[5]
  EC50 [M] hPBMC Proliferation: 1.3e-12 M
[6]
  EC50: 1.45 nM
[7]
  EC50 [M] mfPBMC Proliferation: 1.83e-11 M

B8: H1H7250P (antibody, human IgG1, V domains shown)
VH: QVQLVESGGGLVQPGRSLRLSCAASGFTFDDYTMHWVRQGPGKGLEWVSDIGWNSNTKGYADSVKGRFTISRDNAKNSLYLQMNSLRPEDTALYFCVKDKSGYGKFFIGLDVWGQGTMVTVSS
VL: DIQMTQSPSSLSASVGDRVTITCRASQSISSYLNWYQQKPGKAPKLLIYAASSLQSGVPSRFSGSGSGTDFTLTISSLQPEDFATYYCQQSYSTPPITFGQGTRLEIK
notes: Monovalent 1-arm format: second Fab removed, only the Fc portion (CH2-CH3) expressed; human IgG1 Fc; tied by the numerical identifier; also called H1H7250B
[4]
  U937 Cytotoxicity Human T-cells: 5.91 pM
[5]
  EC50 [M] hPBMC Proliferation: 2.43e-12 M
[6]
  EC50: 1.37 nM
[7]
  EC50 [M] mfPBMC Proliferation: 7.27e-11 M

B9: H1H7269P (antibody, human IgG1, V domains shown)
VH: QVQLVESGGGLVQPGRSLRLSCAASGFKFDDYTMHWVRQGPGKGLEWVSDISWSGGSIDYTDSVKGRFSISRDNAKNSLYLQMNSLRVEDTALYYCVKDKSGYGKYSYGLDVWGQGTTVTVSS
VL: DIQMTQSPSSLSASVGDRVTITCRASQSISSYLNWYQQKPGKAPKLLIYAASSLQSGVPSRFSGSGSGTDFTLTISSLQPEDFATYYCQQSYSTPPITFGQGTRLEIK
notes: Monovalent 1-arm format: second Fab removed, only the Fc portion (CH2-CH3) expressed; human IgG1 Fc; tied by the numerical identifier; also called H1H7269B
[4]
  U937 Cytotoxicity Human T-cells: 10.8 pM
[5]
  EC50 [M] hPBMC Proliferation: 1.15e-12 M
[6]
  EC50: 1.95 nM

B10: H1H7208P (antibody, human IgG1, V domains shown)
VH: QVQLVESGGGLVHPGRSLRLSCAASGFKFDDYTMHWVRQAPGKGLEWVSDISWNSGSKGYADSVKGRFTISRDNAKDSLYLQMDSLRAADTAFYYCAKDKSGYGHFYYYAMDVWGQGTTVTVSS
VL: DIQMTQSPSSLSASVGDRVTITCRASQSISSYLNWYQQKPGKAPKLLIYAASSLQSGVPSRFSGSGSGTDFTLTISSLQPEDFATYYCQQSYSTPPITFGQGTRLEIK
notes: Monovalent 1-arm format: second Fab removed, only the Fc portion (CH2-CH3) expressed; human IgG1 Fc; tied by the numerical identifier; also called H1H7208B
[4]
  U937 Cytotoxicity Human T-cells: 45.9 pM
[5]
  EC50 [M] hPBMC Proliferation: 1.46e-12 M
[6]
  EC50: 51.9 nM
[7]
  EC50 [M] mfPBMC Proliferation: 7.02e-12 M

B11: H1H5801B (antibody, human IgG1, V domains shown)
VH: QVQLVQSGGGVVQPGGSLRLSCAASGFTFDDYAMHWVRQAPGKGLEWVSLISGDGGSTYYADSVKGRFTISRDNSKNSLYLQMNSLRTEDTALYYCAKDDSSSSWYYYYYGMDVWGRGTTVTVSS
VL: DIQMTQSPSSLSASVGDRVTITCRASQRISSYLNWYQQKPGKAPKVLISVASSLQSGVPSRFSGSGSGTDFTLTISSLQPEDFASYYCQQSYNTPLTFGGGTKVEIKR
notes: H1H: human IgG1 Fc
[1]
  EC50 [M] hPBMC Proliferation: 1.09e-12 M
[2]
  EC50: 15.5 nM
[3]
  U937 Cytotoxicity Human T-cells: 92.3 pM

B12: H1H7223P (antibody, human IgG1, V domains shown)
VH: QVQLVESGGGLVQPGRSLRLSCAASGFTFADYTMHWVRQAPGKGLEWVSDISWNSGSMGYADSVKGRFTISRDNAKKSLYLQMNSLRTEDTALYYCAKDGSGYGKYFFYAMDVWGQGTTVTVSS
VL: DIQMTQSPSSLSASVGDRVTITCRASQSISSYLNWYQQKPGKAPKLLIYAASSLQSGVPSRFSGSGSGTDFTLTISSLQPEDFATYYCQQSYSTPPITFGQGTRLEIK
notes: Monovalent 1-arm format: second Fab removed, only the Fc portion (CH2-CH3) expressed; human IgG1 Fc; tied by the numerical identifier; also called H1H7223B
[4]
  U937 Cytotoxicity Human T-cells: 5.3 pM
[5]
  EC50 [M] hPBMC Proliferation: 1.07e-12 M
[6]
  EC50: 0.937 nM
[7]
  EC50 [M] mfPBMC Proliferation: 6.75e-11 M

B13: H1H7226P (antibody, human IgG1, V domains shown)
VH: EVQLVQSGGGLVQPGRSLRLSCAASGFTFSDYTMHWVRQGPGKGLEWVSDISWNSGSKGYTDSVKGRFTISRDNAKKSLYLQMNSLRAEDTALYYCVKDGSGYGKYHFYAMDVWGQGTLVTVSS
VL: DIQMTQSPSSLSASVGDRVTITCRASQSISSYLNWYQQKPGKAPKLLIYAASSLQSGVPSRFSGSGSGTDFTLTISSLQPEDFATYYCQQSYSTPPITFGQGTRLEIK
notes: Monovalent 1-arm format: second Fab removed, only the Fc portion (CH2-CH3) expressed; human IgG1 Fc; tied by the numerical identifier; also called H1H7226B
[4]
  U937 Cytotoxicity Human T-cells: 10.4 pM
[5]
  EC50 [M] hPBMC Proliferation: 9.52e-13 M
[6]
  EC50: 0.795 nM
[7]
  EC50 [M] mfPBMC Proliferation: 2.26e-11 M

B14: H1H7203P (antibody, human IgG1, V domains shown)
VH: EVQLVQSGGGLVQPGRSLRLSCAASGFTFADYTMHWVRQTPGKGLEWVSGISWNSGSKDYADSVKGRFTISRDNAKNSLYLQMNSLRTEDTALYYCAKYGSGYGRYFFYAMDVWGQGTTVTVSS
VL: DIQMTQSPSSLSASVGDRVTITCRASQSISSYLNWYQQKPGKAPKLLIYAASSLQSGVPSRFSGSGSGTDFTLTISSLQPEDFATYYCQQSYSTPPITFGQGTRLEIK
notes: Monovalent 1-arm format: second Fab removed, only the Fc portion (CH2-CH3) expressed; human IgG1 Fc; tied by the numerical identifier; also called H1H7203B
[4]
  U937 Cytotoxicity Human T-cells: 5.47 pM
[5]
  EC50 [M] hPBMC Proliferation: 1.64e-12 M
[6]
  EC50: 3.24 nM
[7]
  EC50 [M] mfPBMC Proliferation: 4.97e-13 M

B15: H1H7233P (antibody, human IgG1, V domains shown)
VH: EVQLVESGGGLVQPGGSLRLSCEASGFTFADYTLHWVRQAPGKGLEWVSDISWNSGTRGYADSVRGRFTISRDNAKKSLYLQMNSLRSEDTALYYCVKDGSGYGRYNFYAMDVWGQGTTVTVSS
VL: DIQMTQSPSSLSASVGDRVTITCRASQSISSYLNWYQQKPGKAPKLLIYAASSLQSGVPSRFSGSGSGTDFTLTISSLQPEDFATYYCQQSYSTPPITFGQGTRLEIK
notes: Monovalent 1-arm format: second Fab removed, only the Fc portion (CH2-CH3) expressed; human IgG1 Fc; tied by the numerical identifier; also called H1H7233B
[4]
  U937 Cytotoxicity Human T-cells: 11.9 pM
[5]
  EC50 [M] hPBMC Proliferation: 7.34e-13 M
[6]
  EC50: 0.715 nM
[7]
  EC50 [M] mfPBMC Proliferation: 4.35e-12 M

B16: H1H7198P (antibody, human IgG1, V domains shown)
VH: EVQLVESGGGLVQPGRSLRLSCAASGFTFADYTMHWVRQVPGKGLEWVSDISWNSGSKDYADSVKGRFTISRDNAKNFLYLQMNSLRAEDTALYYCVKYGSGYGKFYFYAMDVWGQGTTVTVSS
VL: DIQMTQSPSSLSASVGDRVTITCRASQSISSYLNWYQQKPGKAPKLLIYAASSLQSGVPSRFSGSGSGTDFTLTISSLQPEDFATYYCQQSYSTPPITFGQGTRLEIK
notes: Monovalent 1-arm format: second Fab removed, only the Fc portion (CH2-CH3) expressed; human IgG1 Fc; tied by the numerical identifier; also called H1H7198B
[4]
  U937 Cytotoxicity Human T-cells: 5.21 pM
[5]
  EC50 [M] hPBMC Proliferation: 2.55e-12 M
[6]
  EC50: 0.726 nM
[7]
  EC50 [M] mfPBMC Proliferation: 2.29e-12 M

B17: H1H7232P (antibody, human IgG1, V domains shown)
VH: EVQLVESGGGLVHPGRSLRLSCAASGFTFDDYTMHWVRQAPGKGLEWVSDISWNSGSRGYADSVKGRFTISRDNAENSLYLQMNSLRAEDTALYYCAKDKSGYGHYYYYAMDVWGQGTTVTVSS
VL: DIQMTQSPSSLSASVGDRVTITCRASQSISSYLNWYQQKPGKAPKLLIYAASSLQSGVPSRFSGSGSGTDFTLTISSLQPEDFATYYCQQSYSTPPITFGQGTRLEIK
notes: Monovalent 1-arm format: second Fab removed, only the Fc portion (CH2-CH3) expressed; human IgG1 Fc; tied by the numerical identifier; also called H1H7232B
[4]
  U937 Cytotoxicity Human T-cells: 9.96 pM
[5]
  EC50 [M] hPBMC Proliferation: 1.03e-12 M
[6]
  EC50: 1.5 nM
[7]
  EC50 [M] mfPBMC Proliferation: 4.9e-11 M

B18: H1H7211P (antibody, human IgG1, V domains shown)
VH: EVQLVESGGGLVHPGRSLRLSCTASGFKFADYTMHWVRQAPGKGLEWVSDISWNSGSKGYADSVKGRFTISRDNDKNSLYLQMNSLRGEDTALYYCAKDGSGYGRFHFYAIDVWGQGTTVTVSS
VL: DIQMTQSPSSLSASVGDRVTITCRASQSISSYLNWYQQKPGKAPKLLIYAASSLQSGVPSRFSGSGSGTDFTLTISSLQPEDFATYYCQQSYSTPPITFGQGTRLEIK
notes: Monovalent 1-arm format: second Fab removed, only the Fc portion (CH2-CH3) expressed; human IgG1 Fc; tied by the numerical identifier; also called H1H7211B
[4]
  U937 Cytotoxicity Human T-cells: 7.89 pM
[5]
  EC50 [M] hPBMC Proliferation: 2.75e-12 M
[6]
  EC50: 0.701 nM
[7]
  EC50 [M] mfPBMC Proliferation: 2.81e-13 M

From US20190127480A1 (Regeneron, published 2019)
